{
  "source": "paper PMC6239910",
  "origin": "cited, not measured here",
  "molecular_target": "Ube2D3-Ub conjugate (Homo sapiens) (UniProt P61077)",
  "sequence (P61077 whole entry)": "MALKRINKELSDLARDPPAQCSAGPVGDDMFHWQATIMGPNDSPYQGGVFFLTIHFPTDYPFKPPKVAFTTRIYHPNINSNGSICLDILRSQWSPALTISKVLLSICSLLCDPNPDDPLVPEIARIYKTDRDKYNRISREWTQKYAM",
  "data": [
    {"substance": "UHRF1 (from UniProt Q96T88)", "values": [
      {"measurement": "Kd", "value": 3.2, "unit": "µM"}
    ]}
  ]
}
